Laboratory results from patent US20220162322A1 (CAPELLA BIOSCIENCE, published 2022).

B1: chimeric mAb 3E05 (parental mouse 3E05 VH/VL on human IgG1) (antibody, V domains shown)
VH: EVKLVESGGGLVKPGGSLKLSCAASGFTFSSYTMSWVRQTPEKRLEWVAYISSGGGNTYYPDSVKGRFTISRDNARNTLYLQMSSLRSEDTAMYYCARHDYYDGGLYYAMDYWGQGTSVTVSS
VL: DIVLTQSPASLAVSLGQRATISCKASQSVDYDGDSSMNWYQQKPGQPPKLLICAASTLESGIPARFSGSGSGTDFTLNIHPVEEEDAATYYCQQTNEDPPTFGGGTKLEIK
notes: also called 3E5; Parental 3E05
B2: 3E05_var12 (antibody, human IgG1, V domains shown)
VH: EVQLVESGGGLVKPGGSLRLSCAASGFTFSSYTMSWVRQAPGKGLEWVAYISSGGGQTYYPDSVKGRFTISRDNAKNSLYLQMNSLRAEDTAVYYCARHDYYEGGLYYAMDYWGQGTLVTVSS
VL: DIVMTQSPDSLAVSLGERATINCKSSQSVDYDGDSSMNWYQQKPGQPPKLLIYAASTLESGVPSRFSGSGSGTDFTLTISSLQAEDVATYYCQQTNEDPPTFGGGTKVEIK
notes: also called 3E05 VL3VH4 (var_12); 3E05VL3VH4 (var_12)
B3: CLEC4C (BDCA-2) protein used for cross-linking / mass spectrometry epitope mapping (receptor)
chain: NFMYSKTVKRLSKLREYQQYHPSLTCVMEGKDIEDWSCCPTPWTSFQSSCYFISTGMQSWTKSQKNCSVMGADLVVINTREEQDFIIQNLKRNSSYFLGLSDPGGRRHWQWVDQTPYNENVTFWHSGEPNNLDERCAIINFRSSEEWGWNDIHCHVPQKSICKMKKIYI
notes: also called BDCA2(CLEC4C)

Columns and labels:
[1] = target: T1, cynomolgus BDCA-2 expressed on transfected U937 cells (cynomolgus, UniProt Q8WTT0 1-213 (human entry)); test: flow cytometry (MFI titration) on cells expressing cynomolgus BDCA-2
T1 construct: also called cell expressed cynomolgus BDCA-2
T1 chain: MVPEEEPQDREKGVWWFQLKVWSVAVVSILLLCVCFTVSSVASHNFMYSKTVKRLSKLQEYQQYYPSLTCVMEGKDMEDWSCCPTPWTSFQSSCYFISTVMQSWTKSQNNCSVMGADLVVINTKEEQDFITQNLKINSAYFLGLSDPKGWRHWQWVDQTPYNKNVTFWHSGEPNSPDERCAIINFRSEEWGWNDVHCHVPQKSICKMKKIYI
Experimental: (§1) Cells expressing human and cynomolgus BDCA-2 were resuspend at 2×10⁶ cells/mi in FACS buffer (2% FBS/PBS) and 50 μl of the cell suspension was added per well, in a 96-well V bottom plate. The plate was centrifuge and the supernatant discarded. 12 serial, 2-fold dilutions of mAbs, starting at 50 μg/ml (range 50-0.024 μg/ml), in FACS buffer were prepared and 25 μl of the mAb dilutions added to wells, in triplicate. The plate was then incubated for 60 min at room temperature then centrifuged and washed 3× with 150 μl FACS buffer. To each well was then added 25 μl goat-anti-human PE conjugate (or goat-anti-mouse in the case of AC144), diluted 1:200 in FACS buffer. The plates were incubated for 60 min at room temperature protected from light and centrifuged and washed 3× with 150 μl FACS buffer. 25 μl per well of 2% PFA 2% was added and incubated for 20 min at 4° C., protected from light and analysed on the iQue screener.
(§2) Serial dilutions of the 4 chimeric mAbs (50-0.25 ug/ml) were prepared and incubated with cells expressing human and cynomolgus BDCA-2. After staining, the median fluorescence intensity (MFI) of the cells was measured and the data points of the dilution series were fitted on a sigmoidal curve after normalization to determine the EC50 values.

[2] = target: T2, human BDCA-2-Fc (hIgG1-Fc-hBDCA-2) (human); test: ELISA on plate-coated human BDCA2-Fc
T2 construct: also called huBDCA2-Fc
Experimental: 100 ul per well of 0.5 μg/ml of human BDCA2-Fc in PBS pH 7.4 was incubated overnight at 4 C. The wells were then washed 3 times with PBST (PBS+0.05% Tween 20) and then blocked with 250 ul 4% Skimmed Milk (Marvel, cat. no. 3023033 Lot no. 7169) in PBS for 120 min at RT. The wells were washed and then incubated with 100 ul per well of humanized mAbs at 3 fold dilutions (from 1 μg/ml to 0.001 μg/ml) in 1% Skimmed Milk PBS buffer at pH 7.4. After 60 min at RT the wells were washed 3 times in PBST and 100 ul of mouse anti-human IgG (anti-CH1-HRP; 1:1000, BD Pharmigen cat. no. 555788) or donkey anti-mouse IgG (anti-mouse IgG-HRP) at 1:5000 dilution (Jackson ImmunoResearch, Cat. no. 715-035-150) in 1% Skimmed Milk PBS was added. Development was with TMB (ThermoFisher, cat. no. 00-4201-56), 100 ul/well and the reaction stopped with 100 μl/well H2SO4 (cat. nr. J/8430/15, lot nr.) and the absorbance read at 450 nm. The EC50 was calculated using Graphpad Prism software. A negative (1% Skimmed Milk/PBS) and positive control (anti-BDCA-2, AC144, Miltenyi Biotec, cat. no. 130-090-690) were utilised in the assay.

[3] = target: T2, human BDCA-2-Fc (hIgG1-Fc-hBDCA-2); test: SPR (BIAcore T200), huBDCA2-Fc immobilised on CM5 chip, mAb injected
Experimental: A BIAcore T200 was used with BIAcore run buffer (HBS-EP) at pH7.4. 692RU of huBDCA2-Fc was immobilized to a CM5 chip (CFJB156) utilising 5 μg/ml of huBDCA2-Fc with the BIAcore EDC/NHS kit according to the manufacturer's instructions. Two-fold dilutions of the humanized mAbs were injected starting at 200 nM down to 3.1 nM with a contact time of 60 s at a flow of 30 or 60 ul/min at 25° C. followed by an off-rate wash for 5 minutes with BIAcore buffer. […] The BIAcore T200 software was used to calculate Ka (1/Ms), Kd (1/s) and the KD (nM).

[4] = target: T3, human BDCA-2 (CLEC4C) expressed on transfected U937 cells (human, UniProt Q8WTT0 1-213); test: flow cytometry (MFI titration) on cells expressing human BDCA-2
T3 construct: also called cell expressed human BDCA-2; Q8WTT0
T3 sequence: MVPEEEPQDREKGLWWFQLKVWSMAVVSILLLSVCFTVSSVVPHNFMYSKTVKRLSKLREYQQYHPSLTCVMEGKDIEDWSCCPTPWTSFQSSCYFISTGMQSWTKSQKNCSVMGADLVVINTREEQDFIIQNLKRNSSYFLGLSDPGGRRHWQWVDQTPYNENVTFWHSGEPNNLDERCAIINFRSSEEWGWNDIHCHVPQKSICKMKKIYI
Experimental: as §1, §2

[5] = target: T4, BDCA-2 (CLEC4C, CD303) on human plasmacytoid dendritic cells (purified pDC or pDC within PBMC) (human, UniProt Q8WTT0 1-213); test: cell-based or functional assay
T4 sequence: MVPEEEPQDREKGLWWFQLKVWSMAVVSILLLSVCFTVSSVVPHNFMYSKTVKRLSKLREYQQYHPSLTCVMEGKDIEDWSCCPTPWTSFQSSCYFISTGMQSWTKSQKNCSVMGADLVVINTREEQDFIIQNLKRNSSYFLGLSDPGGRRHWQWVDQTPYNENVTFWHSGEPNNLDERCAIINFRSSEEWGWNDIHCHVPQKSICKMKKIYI

[6] = target: T2, human BDCA-2-Fc (hIgG1-Fc-hBDCA-2); test: SPR (BIAcore), comparison of KD
[7] = target: the molecule itself; test: High-Mass MALDI mass spectrometry with chemical cross-linking
Experimental: For the characterization of BDCA2(CLEC4C)/3E5 (variant 12) complexes, the measurements were performed using an Autoflex II MALDI ToF ToF mass spectrometer (Bruker) equipped with a CovalX HM4 interaction module. The CovalX interaction module contains a detecting system designed to optimize detection up to 2 MDa with nano-molar sensitivity. […] In order to characterize CLEC4C we submitted the sample to trypsin, chymotrypsin, Asp-N, elastase and thermolysin proteolysis followed by nLC-LTQ-Orbitrap MS/MS analysis. For the characterization, a nLC Ultimate 3000-RSLC system in line with a LTQ-Orbitrap mass spectrometer (Thermo Scientific) was used. Sample preparation was as follows:
In order to determine the epitope of CLEC4C/3E5 complex with high resolution, the protein complexes were incubated with deuterated cross-linkers and subjected to multi-enzymatic cleavage. After enrichment of the crosslinked peptides, the samples were analyzed by high resolution mass spectrometry (nLC-LTQ-Orbitrap MS) and the data generated were analyzed using XQuest and Stavrox software.

[8] = target: T4, BDCA-2 (CLEC4C, CD303) on human …; test: cell-based or functional assay; remark: listed apart in the source

T2 sequence (chain, as listed by the source limits assumed): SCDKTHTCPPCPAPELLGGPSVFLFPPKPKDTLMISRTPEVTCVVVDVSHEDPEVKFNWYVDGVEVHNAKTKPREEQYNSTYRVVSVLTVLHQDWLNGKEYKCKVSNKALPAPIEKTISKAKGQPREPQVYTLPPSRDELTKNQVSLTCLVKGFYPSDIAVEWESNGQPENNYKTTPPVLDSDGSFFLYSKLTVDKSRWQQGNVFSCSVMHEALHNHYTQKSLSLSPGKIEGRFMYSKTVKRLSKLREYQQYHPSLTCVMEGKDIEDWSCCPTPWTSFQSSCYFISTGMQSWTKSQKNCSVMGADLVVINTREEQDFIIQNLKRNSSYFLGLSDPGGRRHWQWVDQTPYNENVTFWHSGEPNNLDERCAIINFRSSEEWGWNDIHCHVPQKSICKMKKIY

Row | Binder | EC50 [1] | EC50 [2] | Kd [3] | EC50 [4] | IC50, nM; inhibition of IFNα from ODN stimulated healthy donor PBMC [5] | IC90, nM; inhibition of IFNα from ODN stimulated healthy donor PBMC [5] | fold higher affinity than parental wild type 3E05 and AC144 [6] | binding result [7] | IC50, ng/ml; inhibition of IFNα from ODN stimulated healthy donor PBMC [8] | IC90, ng/ml; inhibition of IFNα from ODN stimulated healthy donor PBMC [8]
1 | B1 | 2.6 mg/L | 0.3 nM | 0.35 nM | 1.76 mg/L |  |  |  |  |  | 
2 | B2 |  | 0.33 nM | < 0.01 nM |  | 0.1 nM | 0.85 nM | > 100 fold | no binding | 14.3 ng/mL | 127 ng/mL
3 | B3 |  |  |  |  |  |  |  | no binding |  | 
